For the experiment, the target named is T1, ADAMTS-4 (Homo sapiens, UniProt O75173).
T1 sequence (O75173 213-837): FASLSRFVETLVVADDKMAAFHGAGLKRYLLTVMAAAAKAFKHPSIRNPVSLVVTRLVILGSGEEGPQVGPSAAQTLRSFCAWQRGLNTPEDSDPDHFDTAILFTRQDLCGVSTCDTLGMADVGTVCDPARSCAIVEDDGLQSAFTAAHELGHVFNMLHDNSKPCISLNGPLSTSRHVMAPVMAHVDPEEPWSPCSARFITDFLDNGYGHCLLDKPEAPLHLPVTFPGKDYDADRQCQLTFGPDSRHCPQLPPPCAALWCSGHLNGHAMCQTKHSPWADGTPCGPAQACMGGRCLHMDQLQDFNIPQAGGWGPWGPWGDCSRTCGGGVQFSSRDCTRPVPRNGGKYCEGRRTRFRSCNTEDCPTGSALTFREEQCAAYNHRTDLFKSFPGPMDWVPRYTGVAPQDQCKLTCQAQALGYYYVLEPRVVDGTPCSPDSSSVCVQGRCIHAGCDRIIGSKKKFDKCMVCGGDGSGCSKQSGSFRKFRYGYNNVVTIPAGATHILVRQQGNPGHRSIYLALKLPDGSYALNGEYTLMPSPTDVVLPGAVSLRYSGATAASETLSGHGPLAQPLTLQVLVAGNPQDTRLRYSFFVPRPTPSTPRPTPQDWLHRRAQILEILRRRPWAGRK
The experiment in a line: Aggrecanase assay with GST-IGD-FLAG substrate, ADAMTS-4. To be noted: Table 3, pH 7.5, 37° C., read-out: Ki(app) ADAMTS-4. The format is biochemical. The protocol: FIG. 8. Graphs of Ki(app) determination. The GST-IGD-FLAG substrate assay was used to determine the Ki(app) of the N-terminal reactive site mutants against ADAMTS-4 (filled squares) and ADAMTS-5 (open circles).
The substrate containing glutathione S-transferase (GST) fused with the interglobular domain (IGD) of aggrecan (Tyr^331 to Gly^457) attached with a C-terminal FLAG sequence (GST-IGD-FLAG) was prepared by cloning it into pGEX-4T1 at the EcoR1 and Xho1 cloning sites. This substrate was expressed in E. coli strain BL-21 (non-DE3) transfected with the pGEX4T1 GST-IGD-FLAG plasmid by induction with […] isopropyl-beta-D-thiogalactopyranoside (IPTG). […] The concentration of intact substrate (52 kDa) was determined by comparison with Coomassie Brilliant Blue staining of known amounts of bovine serum albumin (GE Healthsciences, Buckinghampshire, UK). […]
Aggrecanase assays were carried out in 50 mM Tris HCl pH 7.5, 150 mM NaCl, 10 mM CaCl2, 0.02% NaN3, 0.05% Brij-35 at 37° C. […] The stained gels were then scanned using a scanning densitometer (Biorad GS-710, Hemel Hempstead, UK) and the band intensity of the product (17 kDa) quantified using the 1D Phoretix quantification software (Nonlinear Dynamics, Newcastle upon Tyne, UK). Background subtraction was done using the rolling ball method, and band intensity expressed as pixel volumes.

B1: N-TIMP-3: N-terminal inhibitory domain of TIMP-3 (residues 1 to 121), C-terminally His-tagged, wild-type (protein)
chain: CTCSPSHPQDAFCNSDIVIRAKVVGKKLVKEGPFGTLVYTIKQMKMYRGFTKMPHVQYIHTEASESLCGLKLEVNKYQYLLTGRVYDGKMYTGLCNFVERWDQLTLSQRKGLNYRYHLGCN
Consider B1, for which the Ki was 2.4 ± 1.6 nM.

B2: -1A: N-TIMP-3 mutant with the addition of an N-terminal alanine extension (-1A) (protein)
chain: ACTCSPSHPQDAFCNSDIVIRAKVVGKKLVKEGPFGTLVYTIKQMKMYRGFTKMPHVQYIHTEASESLCGLKLEVNKYQYLLTGRVYDGKMYTGLCNFVERWDQLTLSQRKGLNYRYHLGCN
B2: the Ki stood at 25 ± 3 nM.

Values taken from patent publication US20090318342A1, “Compounds” (IMPERIAL INNOVATIONS LIMITED, priority 2005, published 2009).
